B1: Azoarcus group I ribozyme (parent)
chain: GUGCCUUGCGCCGGGAAACCACGCAAGGGAUGGUGUCAAAUUCGGCGAAACCUAAGCGCCCGCCCGGGCGUAUGGCAACGCCGAGCCAAGCUUCGGCGCCUGCGCCGAUGAAGGUGUAGAGACUAGACGGCACCCACCUAAGGCAAACGCUAUGGUGAAGGCAUAGUCCAGGGAGUGGCGAAAGUCACACAAACCGG

Variants of: B1
Test: reverse-splicing fitness (ratio to wild type); higher = more active; in vitro selection; Mg2+ level not given
In short: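 An in vitro group I ribozyme library with randomized positions was T7-transcribed and gel-purified. In triplicate, 10 pmol RNA in EPPS pH 7.5 was reacted with 50 pmoles of a 30-nt RNA substrate for 1 h at 37 °C across several added MgCl2 levels (1–48 mM), then stopped with EDTA. Products were reverse transcribed from a substrate-complementary primer, PCR-amplified and sequenced (HiSeq 4000). Fitness is a variant's read proportion after selection over that before, normalised to wild type.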

Variant | reverse-splicing fitness
GUGCCUUGCGCCGGGAAACCACGCAAGGGAUGGUGUCAAAUUCGGCGAAACCUAAGCGCCCGCCCGGGCGUAUGGCAACGCAGAGCCAAGCUUCGGCGCCUGCGCCGAUGAAGGUGUAGUGACUAGACGGCACCCACCUAAGGCAAACGGUAUGGUGAAGGCAUAGUCCAGGGAGGGGCGAAAGUCACACAAACCGG | 0.00281
GUGCCUUGCGCCGGGAAACCACGCAAGGGAUGGUGUCAAAUUCGGCGAAACCUAAGCGCCCGCCCGGGCGUAUGGCAACGCAGAGCCAAGCUUCGGCGCCUGCGCCGAUGAAGGUGUAGUGACUAGACGGCACCCACCUAAGGCAAACGCUAUGGUGAAGGCAUAGUCCAGGGAGAGGCGAAAGUCACACAAACCGG | 0.0313
GUGCCUUGCGCCGGGAAACCACGCAAGGGAUGGUGUCAAAUUCGGCGAAACCUAAGCGCCCGCCCGGGCGUAUGGCAACGCAGAGCCAAGCUUCGGCGCCUGCGCCGAUGAAGGUGUAGUGACUAGACGGCACCCACCUAAGGCAAACGUUAUGGUGAAGGCAUAGUCCAGGGAGAGGCGAAAGUCACACAAACCGG | 0.0194
GUGCCUUGCGCCGGGAAACCACGCAAGGGAUGGUGUCAAAUUCGGCGAAACCUAAGCGCCCGCCCGGGCGUAUGGCAACGCAGAGCCAAGCUUCGGCGCCUGCGCCGAUGAAGGUGUAGUGACUAGACGGCACCCACCUAAGGCAAACGUUAUGGUGAAGGCAUAGUCCAGGGAGCGGCGAAAGUCACACAAACCGG | 0.0352
GUGCCUUGCGCCGGGAAACCACGCAAGGGAUGGUGUCAAAUUCGGCGAAACCUAAGCGCCCGCCCGGGCGUAUGGCAACGCAGAGCCAAGCUUCGGCGCCUGCGCCGAUGAAGGUGUAGUGACUAGACGGCACCCACCUAAGGCAAACGUUAUGGUGAAGGCAUAGUCCAGGGAGGGGCGAAAGUCACACAAACCGG | 0.00609
GUGCCUUGCGCCGGGAAACCACGCAAGGGAUGGUGUCAAAUUCGGCGAAACCUAAGCGCCCGCCCGGGCGUAUGGCAACGCAGAGCCAAGCUUCGGCGCCUGCGCCGAUGAAGGUGUAGUGACUAGACGGCACCCACCUAAGGCAAACGCUAUGGUGAAGGCAUAGUCUAGGGAGGGGCGAAAGUCACACAAACCGG | 0.00156
GUGCCUUGCGCCGGGAAACCACGCAAGGGAUGGUGUCAAAUUCGGCGAAACCUAAGCGCCCGCCCGGGCGUAUGGCAACGCAGAGCCAAGCUUCGGCGCCUGCGCCGAUGAAGGUGUAGUGACUAGACGGCACCCACCUAAGGCAAACGCUAUGGUGAAGGCAUAGUCUAGGGAGAGGCGAAAGUCACACAAACCGG | 0.00359
GUGCCUUGCGCCGGGAAACCACGCAAGGGAUGGUGUCAAAUUCGGCGAAACCUAAGCGCCCGCCCGGGCGUAUGGCAACGCAGAGCCAAGCUUCGGCGCCUGCGCCGAUGAAGGUGUAGUGACUAGACGGCACCCACCUAAGGCAAACGCUAUGGUGAAGGCAUAGUCUAGGGAGCGGCGAAAGUCACACAAACCGG | 0.00453
GUGCCUUGCGCCGGGAAACCACGCAAGGGAUGGUGUCAAAUUCGGCGAAACCUAAGCGCCCGCCCGGGCGUAUGGCAACGCAGAGCCAAGCUUCGGCGCCUGCGCCGAUGAAGGUGUAGUGACUAGACGGCACCCACCUAAGGCAAACGCUAUGGUGAAGGCAUAGUCUAGGGAGUGGCGAAAGUCACACAAACCGG | 0.00613
GUGCCUUGCGCCGGGAAACCACGCAAGGGAUGGUGUCAAAUUCGGCGAAACCUAAGCGCCCGCCCGGGCGUAUGGCAACGCAGAGCCAAGCUUCGGCGCCUGCGCCGAUGAAGGUGUAGUGACUAGACGGCACCCACCUAAGGCAAACGCUAUGGUGAAGGCAUAGUCAAGGGAGUGGCGAAAGUCACACAAACCGG | 0.00277
GUGCCUUGCGCCGGGAAACCACGCAAGGGAUGGUGUCAAAUUCGGCGAAACCUAAGCGCCCGCCCGGGCGUAUGGCAACGCAGAGCCAAGCUUCGGCGCCUGCGCCGAUGAAGGUGUAGUGACUAGACGGCACCCACCUAAGGCAAACGCUAUGGUGAAGGCAUAGUCGAGGGAGUGGCGAAAGUCACACAAACCGG | 0.00529
GUGCCUUGCGCCGGGAAACCACGCAAGGGAUGGUGUCAAAUUCGGCGAAACCUAAGCGCCCGCCCGGGCGUAUGGCAACGCAGAGCCAAGCUUCGGCGCCUGCGCCGAUGAAGGUGUAGUGACUAGACGGCACCCACCUAAGGCAAACGCUAUGGUGAAGGCAUAGUCAAGGGAGCGGCGAAAGUCACACAAACCGG | 0.00197
GUGCCUUGCGCCGGGAAACCACGCAAGGGAUGGUGUCAAAUUCGGCGAAACCUAAGCGCCCGCCCGGGCGUAUGGCAACGCAGAGCCAAGCUUCGGCGCCUGCGCCGAUGAAGGUGUAGUGACUAGACGGCACCCACCUAAGGCAAACGCUAUGGUGAAGGCAUAGUCAAGGGAGAGGCGAAAGUCACACAAACCGG | 0.00254
GUGCCUUGCGCCGGGAAACCACGCAAGGGAUGGUGUCAAAUUCGGCGAAACCUAAGCGCCCGCCCGGGCGUAUGGCAACGCAGAGCCAAGCUUCGGCGCCUGCGCCGAUGAAGGUGUAGUGACUAGACGGCACCCACCUAAGGCAAACGCUAUGGUGAAGGCAUAGUCAAGGGAGGGGCGAAAGUCACACAAACCGG | 0.00137
GUGCCUUGCGCCGGGAAACCACGCAAGGGAUGGUGUCAAAUUCGGCGAAACCUAAGCGCCCGCCCGGGCGUAUGGCAACGCAGAGCCAAGCUUCGGCGCCUGCGCCGAUGAAGGUGUAGUGACUAGACGGCACCCACCUAAGGCAAACGUUAUGGUGAAGGCAUAGUCGAGGGAGUGGCGAAAGUCACACAAACCGG | 0.00546
GUGCCUUGCGCCGGGAAACCACGCAAGGGAUGGUGUCAAAUUCGGCGAAACCUAAGCGCCCGCCCGGGCGUAUGGCAACGCAGAGCCAAGCUUCGGCGCCUGCGCCGAUGAAGGUGUAGUGACUAGACGGCACCCACCUAAGGCAAACGUUAUGGUGAAGGCAUAGUCUAGGGAGUGGCGAAAGUCACACAAACCGG | 0.00643
GUGCCUUGCGCCGGGAAACCACGCAAGGGAUGGUGUCAAAUUCGGCGAAACCUAAGCGCCCGCCCGGGCGUAUGGCAACGCAGAGCCAAGCUUCGGCGCCUGCGCCGAUGAAGGUGUAGUGACUAGACGGCACCCACCUAAGGCAAACGUUAUGGUGAAGGCAUAGUCAAGGGAGUGGCGAAAGUCACACAAACCGG | 0.00439
GUGCCUUGCGCCGGGAAACCACGCAAGGGAUGGUGUCAAAUUCGGCGAAACCUAAGCGCCCGCCCGGGCGUAUGGCAACGCAGAGCCAAGCUUCGGCGCCUGCGCCGAUGAAGGUGUAGUGACUAGACGGCACCCACCUAAGGCAAACGUUAUGGUGAAGGCAUAGUCGAGGGAGCGGCGAAAGUCACACAAACCGG | 0.00363
GUGCCUUGCGCCGGGAAACCACGCAAGGGAUGGUGUCAAAUUCGGCGAAACCUAAGCGCCCGCCCGGGCGUAUGGCAACGCAGAGCCAAGCUUCGGCGCCUGCGCCGAUGAAGGUGUAGUGACUAGACGGCACCCACCUAAGGCAAACGUUAUGGUGAAGGCAUAGUCGAGGGAGGGGCGAAAGUCACACAAACCGG | 0.00165
GUGCCUUGCGCCGGGAAACCACGCAAGGGAUGGUGUCAAAUUCGGCGAAACCUAAGCGCCCGCCCGGGCGUAUGGCAACGCAGAGCCAAGCUUCGGCGCCUGCGCCGAUGAAGGUGUAGUGACUAGACGGCACCCACCUAAGGCAAACGUUAUGGUGAAGGCAUAGUCGAGGGAGAGGCGAAAGUCACACAAACCGG | 0.00534
GUGCCUUGCGCCGGGAAACCACGCAAGGGAUGGUGUCAAAUUCGGCGAAACCUAAGCGCCCGCCCGGGCGUAUGGCAACGCAGAGCCAAGCUUCGGCGCCUGCGCCGAUGAAGGUGUAGUGACUAGACGGCACCCACCUAAGGCAAACGUUAUGGUGAAGGCAUAGUCCAGGGAGUGGCGAAAGUCACACAAACCGG | 0.0723
GUGCCUUGCGCCGGGAAACCACGCAAGGGAUGGUGUCAAAUUCGGCGAAACCUAAGCGCCCGCCCGGGCGUAUGGCAACGCAGAGCCAAGCUUCGGCGCCUGCGCCGAUGAAGGUGUAGUGACUAGACGGCACCCACCUAAGGCAAACGCUAUGGUGAAGGCAUAGUCGAGGGAGAGGCGAAAGUCACACAAACCGG | 0.00261
GUGCCUUGCGCCGGGAAACCACGCAAGGGAUGGUGUCAAAUUCGGCGAAACCUAAGCGCCCGCCCGGGCGUAUGGCAACGCAGAGCCAAGCUUCGGCGCCUGCGCCGAUGAAGGUGUAGUGACUAGACGGCACCCACCUAAGGCAAACGCUAUGGUGAAGGCAUAGUCGAGGGAGCGGCGAAAGUCACACAAACCGG | 0.00323
GUGCCUUGCGCCGGGAAACCACGCAAGGGAUGGUGUCAAAUUCGGCGAAACCUAAGCGCCCGCCCGGGCGUAUGGCAACGCAGAGCCAAGCUUCGGCGCCUGCGCCGAUGAAGGUGUAGUGACUAGACGGCACCCACCUAAGGCAAACGCUAUGGUGAAGGCAUAGUCGAGGGAGGGGCGAAAGUCACACAAACCGG | 0.00153
GUGCCUUGCGCCGGGAAACCACGCAAGGGAUGGUGUCAAAUUCGGCGAAACCUAAGCGCCCGCCCGGGCGUAUGGCAACGCAGAGCCAAGCUUCGGCGCCUGCGCCGAUGAAGGUGUAGUGACUAGACGGCACCCACCUAAGGCAAACGUUAUGGUGAAGGCAUAGUCAAGGGAGAGGCGAAAGUCACACAAACCGG | 0.00392
GUGCCUUGCGCCGGGAAACCACGCAAGGGAUGGUGUCAAAUUCGGCGAAACCUAAGCGCCCGCCCGGGCGUAUGGCAACGCAGAGCCAAGCUUCGGCGCCUGCGCCGAUGAAGGUGUAGUGACUAGACGGCACCCACCUAAGGCAAACGUUAUGGUGAAGGCAUAGUCAAGGGAGCGGCGAAAGUCACACAAACCGG | 0.00357
GUGCCUUGCGCCGGGAAACCACGCAAGGGAUGGUGUCAAAUUCGGCGAAACCUAAGCGCCCGCCCGGGCGUAUGGCAACGCAGAGCCAAGCUUCGGCGCCUGCGCCGAUGAAGGUGUAGUGACUAGACGGCACCCACCUAAGGCAAACGUUAUGGUGAAGGCAUAGUCAAGGGAGGGGCGAAAGUCACACAAACCGG | 0.00226
GUGCCUUGCGCCGGGAAACCACGCAAGGGAUGGUGUCAAAUUCGGCGAAACCUAAGCGCCCGCCCGGGCGUAUGGCAACGCAGAGCCAAGCUUCGGCGCCUGCGCCGAUGAAGGUGUAGUGACUAGACGGCACCCACCUAAGGCAAACGUUAUGGUGAAGGCAUAGUCUAGGGAGCGGCGAAAGUCACACAAACCGG | 0.00368
GUGCCUUGCGCCGGGAAACCACGCAAGGGAUGGUGUCAAAUUCGGCGAAACCUAAGCGCCCGCCCGGGCGUAUGGCAACGCAGAGCCAAGCUUCGGCGCCUGCGCCGAUGAAGGUGUAGUGACUAGACGGCACCCACCUAAGGCAAACGUUAUGGUGAAGGCAUAGUCUAGGGAGGGGCGAAAGUCACACAAACCGG | 0.00199
GUGCCUUGCGCCGGGAAACCACGCAAGGGAUGGUGUCAAAUUCGGCGAAACCUAAGCGCCCGCCCGGGCGUAUGGCAACGCAGAGCCAAGCUUCGGCGCCUGCGCCGAUGAAGGUGUAGUGACUAGACGGCACCCACCUAAGGCAAACGUUAUGGUGAAGGCAUAGUCUAGGGAGAGGCGAAAGUCACACAAACCGG | 0.00458

— the RNAGym collection of RNA variant scans (doi:10.1093/molbev/msab373)
